Data taken from patent US20110086806A1 (published 2011).
Substitutions are numbered along the chain they refer to.

T1: recombinant human IL-23R/Fc chimera (R&D Systems) (human, UniProt Q5VWK5 24-355)
T1 construct: Bought; also called rhIL23RFc
T1 sequence (looked up): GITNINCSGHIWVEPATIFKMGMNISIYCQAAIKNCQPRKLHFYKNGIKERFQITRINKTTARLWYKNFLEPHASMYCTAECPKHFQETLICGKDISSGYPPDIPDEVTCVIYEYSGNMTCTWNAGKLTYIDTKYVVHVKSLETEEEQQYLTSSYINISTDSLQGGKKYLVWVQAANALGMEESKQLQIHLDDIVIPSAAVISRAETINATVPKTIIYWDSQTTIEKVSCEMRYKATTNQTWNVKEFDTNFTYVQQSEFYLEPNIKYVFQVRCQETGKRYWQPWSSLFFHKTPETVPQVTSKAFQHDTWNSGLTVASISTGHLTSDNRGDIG

B1: 101-51-1A3 ATRIMER complex (designed binder)
chain: EPPTQKPKKIVNAKKDVVNTKMFEELKSRLDTLAQEVALLKEQQALQTVCLKGTKVHMKCFLAFTQTKTFHEASEDCISRGGTLSTPQTGSENDALYEYLRQSVGNEAEIWLGLNGSALTNTWVDMTGARIAYKNWEHQPVYQPGGGWGVFGENCAVLSGAANGKWFDKRCRDQLPYICQFGIV
modifications: Forms a homotrimer through the tetranectin coiled coil; one protomer is given.
notes: not shown: C-terminal tag: His/Myc (pANA4) or HA-StrepII (pANA10)
B2: 101-51-1A6 ATRIMER complex (designed binder)
chain: B1 chain with H138N, Q139N, P140L, V141S, Y142A, G145R, W148F, V150Y
modifications: Forms a homotrimer through the tetranectin coiled coil; one protomer is given.
notes: as for B1
B3: 101-80-5E8 ATRIMER complex (designed binder)
chain: B1 chain with H138P, Q139P, P140E, V141P, Y142L, Q143H, G145M, W148F
B4: 101-51-1A8 ATRIMER complex (designed binder)
chain: B1 chain with H138R, Q139T, V141P, Y142W, G145E, W148F, V150Y
modifications: Forms a homotrimer through the tetranectin coiled coil; one protomer is given.
notes: as for B1
B5: 101-51-1A9 ATRIMER complex (designed binder)
chain: B1 chain with H138P, Q139A, P140R, V141Q, Y142P, W148F, V150Y
B6: 101-54-4B10 ATRIMER complex (designed binder)
chain: B1 chain with H138R, Q139P, V141L, W148F, V150Y
B7: 101-54-4A12 ATRIMER complex (designed binder)
chain: EPPTQKPKKIVNAKKDVVNTKMFEELKSRLDTLAQEVALLKEQQALQTVCLKGTKVHMKCFLAFTQTKTFHEASEDCISRGGTLSTPQTGSENDALYEYLRQSVGNEAEIWLGLNGSRRSGVWVDMTGARIAYKNWEPPGPAHPQGGFGVFGENCAVLSGAANGKWFDKRCRDQLPYICQFGIV
notes: also called 101-54-4Al2
B8: 101-51-1A5 ATRIMER complex (designed binder)
chain: B1 chain with H138N, Q139G, P140H, V141E, Y142P, G145R, W148F, V150Y
modifications: Forms a homotrimer through the tetranectin coiled coil; one protomer is given.
notes: as for B1
B9: 101-51-1A10 ATRIMER complex (designed binder)
chain: B1 chain with Q139P, P140L, V141P, Y142P, G145S, W148F, V150Y
modifications: Forms a homotrimer through the tetranectin coiled coil; one protomer is given.
notes: as for B1
B10: 101-54-4B3 ATRIMER complex (designed binder)
chain: B1 chain with H138L, Q139P, V141P, Y142G, Q143H, G145Q, W148F
B11: 105-20-2C11 ATRIMER complex (designed binder)
chain: B1 chain with A118V, L119R, N121D, H138T, Q139E, P140I, V141T, Y142A, G145D, V150Y
notes: as for B1
B12: 105-08-2C9 ATRIMER complex (designed binder)
chain: B1 chain with A118T, H138T, Q139E, P140I, V141T, Y142A, G145D, V150Y
B13: 105-20-2C4b ATRIMER complex (designed binder)
chain: B1 chain with A118V, L119K, N121D, H138T, Q139E, P140I, V141T, Y142A, G145D, V150Y
B14: 105-20-2F10 ATRIMER complex (designed binder)
chain: B1 chain with L119R, N121D, H138T, Q139E, P140I, V141T, Y142A, G145D, W148F, V150Y
notes: as for B1
B15: 105-20-2C4a ATRIMER complex (designed binder)
chain: B1 chain with L119K, N121D, H138T, Q139E, P140I, V141T, Y142A, G145D, V150Y
modifications: ATRIMER complex: homotrimer of three copies of this chain, joined by the tetranectin coiled coil
notes: not shown: C-terminal tag: Myc/His (pANA4) or HA-StrepII (pANA10)
B16: 105-20-2G5 ATRIMER complex (designed binder)
chain: B1 chain with A118R, L119R, N121D, H138T, Q139E, P140I, V141T, Y142A, G145D, V150Y
B17: 105-59-3A5 ATRIMER complex (designed binder)
chain: B1 chain with A118L, H138T, Q139E, P140I, V141T, Y142A, G145D, W148F
modifications: Homotrimer of three identical chains (ATRIMER complex); one chain is given.
notes: as for B1
B18: 105-61-4G3 ATRIMER complex (designed binder)
chain: B1 chain with A118L, L119R, N121D, H138T, Q139E, P140I, V141T, Y142A, G145D, W148F
notes: also called 61-p4G3
B19: 105-08-2G4 ATRIMER complex (designed binder)
chain: B7 chain with R118P, S120T, V122T, P138T, P139E, G140I, P141T, H143Q, Q145D, V150Y
B20: 105-08-2H10 ATRIMER complex (designed binder)
chain: EPPTQKPKKIVNAKKDVVNTKMFEELKSRLDTLAQEVALLKEQQALQTVCLKGTKVHMKCFLAFTQTKTFHEASEDCISRGGTLSTPQTGSENDALYEYLRQSVGNEAEIWLGLNGSNHTDTWVDMTGARIAYKNWETEITAQPDGGFGYFGENCAVLSGAANGKWFDKRCRDQLPYICQFGIV
B21: 105-08-2C12 ATRIMER complex (designed binder, not shown: small tags and cut ends)
chain: B20 chain with N118Q, H119R
B22: 105-08-2H3 ATRIMER complex (designed binder)
chain: B20 chain with N118S, H119L, D121N, F148W
modifications: ATRIMER complex: homotrimer of three copies of this chain, joined by the tetranectin coiled coil
notes: as for B15
B23: 105-61-4G5 ATRIMER complex (designed binder)
chain: B20 chain with N118P, H119L, D121N, Y150V
B24: 105-20-2C7 ATRIMER complex (designed binder, not shown: small tags and cut ends)
chain: B20 chain with N118V, H119T
B25: 105-08-2C11 ATRIMER complex (designed binder)
chain: B20 chain with N118L, H119K, D121Q, F148W
B26: 105-08-2G1 ATRIMER complex (designed binder)
chain: B20 chain with N118P, H119K, D121H
B27: 105-08-2H6 ATRIMER complex (designed binder)
chain: B20 chain with N118P, H119V, D121G
B28: 105-08-2H4 ATRIMER complex (designed binder)
chain: B20 chain with N118V, H119R
B29: 105-08-2G6 ATRIMER complex (designed binder)
chain: B20 chain with N118L, H119L, F148W
B30: 105-08-2H12 ATRIMER complex (designed binder, not shown: small tags and cut ends)
chain: B20 chain with N118P, H119R, D121E
B31: 105-08-2C8 ATRIMER complex (designed binder)
chain: B20 chain with N118W, H119L, F148W
B32: 105-08-2E12 ATRIMER complex (designed binder)
chain: B20 chain with N118G, H119L, F148W
B33: 105-08-2D2 ATRIMER complex (designed binder)
chain: B20 chain with N118A, H119R, D121G
B34: 105-08-2H2 ATRIMER complex (designed binder)
chain: B20 chain with N118P, H119T, F148W
B35: 105-08-2G2 ATRIMER complex (designed binder)
chain: B20 chain with N118A, H119I, F148W
B36: 105-08-2H11 ATRIMER complex (designed binder)
chain: B20 chain with N118P, H119R, F148W
notes: as for B1
B37: 105-20-1A6 ATRIMER complex (designed binder)
chain: B20 chain with N118A, H119K, D121G, F148W
B38: 105-78-2E6 ATRIMER complex (designed binder)
chain: B20 chain with N118L, H119R, D121N, Y150V
B39: 105-59-3B5 ATRIMER complex (designed binder)
chain: B20 chain with N118P, H119I, Y150V
B40: 105-78-2D1 ATRIMER complex (designed binder)
chain: B20 chain with N118L, H119R, D121H, Y150V
B41: 105-20-1B4 ATRIMER complex (designed binder)
chain: B20 chain with N118S, H119R, D121N, F148W
modifications: ATRIMER complex: homotrimer of three copies of this chain, joined by the tetranectin coiled coil
notes: as for B15

What follows are binders tested against T1, recombinant human IL-23R/Fc chimera … (assay: SPR).
Method: A Biacore 3000 biosensor (GE Healthcare) was used to evaluate the interaction of human IL-23R and receptor binders. Immobilization of an anti-human IgG Fc antibody (GE Healthcare) to the CM5 chip (GE Healthcare) was performed using standard amine coupling chemistry, and this modified surface was used to capture a recombinant human IL-23R/Fc fusion protein (R&D Systems). A low-density receptor surface, less than 200 RU, was used for all of the analyses. ATRIMER™ polypeptide complex dilutions (1-500 nM) were injected over the IL-23R surface at 30 μl/min and kinetic constants were derived from the sensorgram data using the Biaevaluation software (version 3.1, GE Healthcare). Data collection was 3 minutes for the association and 5 minutes for dissociation. The anti-human IgG surface was regenerated with a 30s pulse of 3M magnesium chloride. All sensorgrams were double-referenced against an activated and blocked flow-cell as well as buffer injections.

| Binder | Ka [M⁻¹] | Kd [nM] | koff [s⁻¹] | kon [M⁻¹ s⁻¹] |
| --- | --- | --- | --- | --- |
| B1 | 1.77e+09 | 0.565 | 0.000262 | 463000 |
| B2 | 1.34e+09 | 0.746 | 0.000415 | 557000 |
| B3 | 2.89e+09 | 0.346 | 0.000391 | 1.13e+06 |
| B4 | 6.62e+08 | 1.51 | 0.000396 | 262000 |
| B5 | 1.05e+09 | 0.955 | 0.000329 | 345000 |
| B6 | 1.11e+09 | 0.897 | 0.000429 | 479000 |
| B7 | 2.16e+09 | 0.463 | 0.000573 | 1.24e+06 |
| B8 | 1.71e+09 | 0.584 | 0.000289 | 495000 |
| B9 | 4.85e+08 | 2.06 | 0.000345 | 167000 |
| B10 | 3.12e+09 | 0.321 | 0.000364 | 1.13e+06 |

What follows are binders tested against T1, recombinant human IL-23R/Fc chimera … (assay: competition ELISA vs IL-23).
Method: Assays were performed generally as follows. Individual wells in Immulon HB2 plates were incubated overnight at 4° C. with 100 μL PBS containing 100 ng of an anti-human IgG Fc (R&D MAB 110 clone 97924). Plates were washed five times with PBS/0.05% Tween 20, and wells were incubated for 1.5 h at RT with 100 μL each of PBS containing 50 ng of recombinant human IL-23R/Fc. […] Competitor was included at a final concentration of 1 μg/mL. After incubation, plates were washed as described and wells were incubated for 40 min at RT with 100 μL each of PBS containing a 1:5000 dilution of streptavidin-HRP conjugate (Pierce catalog no. 21130). After washing, wells were incubated with 100 μL each of TMB (BioFX Lab catalog no. TMBH-1000-0) for up to 30 min at RT. Reactions were stopped with an equal volume of 0.2 M sulfuric acid.

| Binder | Ratio IC50 to 056-53.H4E IC50 |
| --- | --- |
| B1 | 1.6 |
| B11 | 4.8 |
| B12 | 5.3 |
| B13 | 4.2 |
| B2 | 2.6 |
| B3 | 0.6 |
| B14 | 4.2 |
| B15 | 2.9 |
| B16 | 5.3 |
| B17 | 1.2 |
| B18 | 0.8 |
| B4 | 3.7 |
| B19 | 2.5 |
| B20 | 6.5 |
| B21 | 3.3 |
| B22 | 2.9 |
| B23 | 1 |
| B24 | 3.5 |
| B25 | 9.1 |
| B26 | 2.2 |
| B27 | 2 |

| Binder | Ratio IC50 to 056-53.H4E IC50 |
| --- | --- |
| B28 | 5 |
| B29 | 5.2 |
| B30 | 3.3 |
| B5 | 2.2 |
| B31 | 8.4 |
| B32 | 9.1 |
| B6 | 1.4 |
| B33 | 4.1 |
| B34 | 4 |
| B35 | 3.8 |
| B7 | 1.1 |
| B36 | 4.3 |
| B8 | 1 |
| B37 | 6.6 |
| B38 | 1 |
| B9 | 8.7 |
| B39 | 0.8 |
| B40 | 1.3 |
| B10 | 1 |
| B41 | 3 |
